Results on 2 molecules are retold here after PMC3064986 (Biochemical and biophysical research communications, 2011).

B1: yeast antizyme (Saccharomyces cerevisiae), N-terminal 6XHis-tagged, full length (natural protein, UniProt Q02803 1-292, looked up)
chain: MYEVIQKRKTKIINVLQSPELMRLIEDPSNLGISLHFPVSSLLKSNKCTPMPKLSTYSLASGGFKDWCADIPLDVPPEIDIIDFYWDVILCMESQFILDYNVPSKNKGNNQKSVAKLLKNKLVNDMKTTLKRLIYNENTKQYKNNNSHDGYNWRKLGSQYFILYLPLFTQELIWCKLNENYFHVVLPSLLNSRNVHDNHSTYINKDWLLALLELTSNLNQNFKFEYMKLRLYILRDDLINNGLDLLKNLNWVGGKLIKNEDREVLLNSTDLATDSISHLLGDENFVILEFEC
B2: yeast ornithine decarboxylase (Saccharomyces cerevisiae SPE1) (enzyme, UniProt P08432 1-466, looked up)
chain: MSSTQVGNALSSSTTTLVDLSNSTVTQKKQYYKDGETLHNLLLELKNNQDLELLPHEQAHPKIFQALKARIGRINNETCDPGEENSFFICDLGEVKRLFNNWVKELPRIKPFYAVKCNPDTKVLSLLAELGVNFDCASKVEIDRVLSMNISPDRIVYANPCKVASFIRYAASKNVMKSTFDNVEELHKIKKFHPESQLLLRIATDDSTAQCRLSTKYGCEMENVDVLLKAIKELGLNLAGVSFHVGSGASDFTSLYKAVRDARTVFDKAANEYGLPPLKILDVGGGFQFESFKESTAVLRLALEEFFPVGCGVDIIAEPGRYFVATAFTLASHVIAKRKLSENEAMIYTNDGVYGNMNCILFDHQEPHPRTLYHNLEFHYDDFESTTAVLDSINKTRSEYPYKVSIWGPTCDGLDCIAKEYYMKHDVIVGDWFYFPALGAYTSSAATQFNGFEQTADIVYIDSELD

In assay [1] the target is B2. The experiment in a line: SPR.
Assay [2] addresses B1. The experiment in a line: SEC-MALS.

Consider B1, for which, in assay [1], the Kd stood at 17.3 nM and the kon is 31400 M⁻¹ s⁻¹.
Turning to B2, the “stoichiometry N” value in assay [2] is 1 ODC per AZ.
